Our source for the amyloid nucleation score values is the supplement of paper PMC12042874.

± gives the uncertainty stated by the source.

The series in a line: amyloid nucleation score (Sup35N fusion, yeast selection) (log enrichment); library NNK1; higher = more nucleation; inactive = no reads after selection. The method in brief: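 Psi-negative yeast expressed Sup35N fused to peptides of 20 random codons. They were induced 24 hours with 100 μM copper sulfate, grown 7 days at 30°C without adenine and uracil, and their plasmid inserts from input and output were Illumina-sequenced. The nucleation score is the DiMSum log enrichment of output over input reads, centred on the mode score of non-aggregating sequences. Sequences with under 100 input reads were excluded.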

Regarding YYSWQEDGFPFTNVSMFWS, the amyloid nucleation score was -0.076 ± 0.37.
To GYSAYRFGQCMSETGRRRIH belongs 1.42 ± 0.72.
As for NEECVPHV, the figure is 0.223 ± 0.34; as for ARVSGILLVMLCRYHFGLRE, 0.102 ± 0.69.
To CSNLM belongs -0.675 ± 0.66; to AKELDNGIYFMKLWLREELE, -0.743 ± 1.2; to YYWSYLALYSG, -0.57 ± 1.2.
The substance GLTRFGGPSTMIFMDL yielded an amyloid nucleation score of -0.201 ± 0.8.
To FASMIFSRASSSSDNIFFRN belongs 0.361 ± 0.22; to FTLSKTILDRSFLWIQGLWS, -0.354 ± 0.81.
As for GTHLYS, the figure is 0.78 ± 0.38; as for DLYQCVHPMFHVWVCVTAGW, “inactive”.
EVLNIYLHNRLNVLFTELAS had an amyloid nucleation score of -0.884 ± 1.4.
To ARGPLKSGINQNVCSCGTSI belongs 0.118 ± 1.5.
To DIITFHYLRTARLKGRYLFI belongs “inactive”; to PSVTTS, -0.482 ± 0.58; to NKYLLNF, “inactive”.
To DLSSRFGRVETERGGKVKCQ belongs -0.299 ± 1.1; to CTVMDRLLTQEPTNRRWSRY, 0.06 ± 0.84.
With AFRCCMFAFVFCSSGDSRAE, the amyloid nucleation score was found to be 7.392 ± 0.056.
Consider VNMSVIWGRVFASEKVYRAK, for which the amyloid nucleation score came to 0.871 ± 0.56.
To AYPWRITFDAWISYV belongs 0.294 ± 0.76; to MVTTPFALTGFRDVMWCRAR, 3.09 ± 0.092.
On to LLALCCDSLRCYR, for which the amyloid nucleation score came out at 0.282 ± 1.2.
For the substance ALWNYAVNSTLWWGLGYGWR, the amyloid nucleation score is 0.052 ± 0.41.
To ETHLIGVCYNRCL belongs 0.643 ± 0.42; to VRLAL, -0.27 ± 0.26.
As for MASPLSLGKAVALAKHKWGD, the figure is 0.001 ± 1.1.
SYLFVWFTSLLSDPQ yielded an amyloid nucleation score of -0.716 ± 1.2.
To CSHGNYHITCCPHAFFMTAI belongs 4.91 ± 0.098; to GYELSMKATIRVVCRAIYFC, 0.62 ± 0.41.
To NSTSCCVMGVSVRFMSFF belongs 7.498 ± 0.069.
On to TLMRCVFLLYYPCGYIKSDL, for which the amyloid nucleation score worked out at 0.551 ± 0.31.
To VFLKDSTVAGNVMTCDIRVV belongs 0.078 ± 0.6; to ISTFLRFSQSDEQYYPTE, 0.496 ± 0.48; to SQFYVLVIWLSCALSMGSSI, -0.04 ± 0.45.
Consider LKSRGWYCFSNVTMYDLRME, for which the amyloid nucleation score amounted to 3.42 ± 0.067.
As for NEFVDQFSEHFGRVGEFPAW, the figure is -0.316 ± 0.4; as for SFWYYGDEKNVTVNLGFNES, -0.233 ± 0.79; as for HNWCRSSRRVVMSFMCKTKL, 0.412 ± 1.1.
As for MDSCCIMTMIKHELGLPYQP, the amyloid nucleation score amounted to 3.77 ± 0.1.
To RIDARILLITCL belongs -1.51 ± 2.4; to LIGFSRVSSGFSPFTPAHCR, 2.04 ± 0.14.
As for NFSESFLTVNPQTTDVLKLH, the figure is -1.18 ± 1.5; as for RTVQSGHSSARCKIIGPYHD, -0.077 ± 1.7.
As for GSMEHCNRNRFFFMGERLLR, the figure is -1.1 ± 2.7.
The substance NLNFLFFQWSNIMVCHQNQV came in with an amyloid nucleation score of 4.62 ± 0.057.
SVIRDWLSGACSGTTEGRRT: the amyloid nucleation score was -0.295 ± 0.43.
To DYPPIRALVSFDCCAVSTCL belongs 0.922 ± 0.93.
Consider GEERFYSLKYCCKGRLWRPG, for which the amyloid nucleation score is 0.179 ± 0.43.
To RDCPTNIVAGTLLCLMAEWT belongs -0.549 ± 1.
As for NCIPALHEYVCMRR, the figure is 0.282 ± 0.54; as for VHRFQ, 0.108 ± 0.61; as for SFMQFDIRFT, 1.4 ± 0.27.
As for SLVTDCYVPGFLYAMVIHAG, the figure is 1.01 ± 0.45; as for NNTFGLGNFTDSFCNIRSEK, 0.572 ± 0.39; as for YWAKCGWQAGKRYEV, 0.803 ± 0.77.
RGRRDAGGYRSKSFLGAWGV came in with an amyloid nucleation score of 0.837 ± 0.21.
In the case of NGTGLFNNLWVGSLRLRVTR, the amyloid nucleation score worked out at 0.192 ± 0.56.
To VSMFRRVASEALYRQPSMLA belongs 0.972 ± 0.36.
To AFGAVFRGEKR belongs 0.241 ± 1.4; to VRLMQIWGV, -0.5 ± 2.1; to MVGSKSGKDGAQASSRKLAF, 0.708 ± 0.34.
As for FCVRICNCRIWCLCSLTKSL, the figure is -0.624 ± 0.46; as for WKYVTLELIWWTTLVTAWGT, 1.02 ± 0.8; as for IDMTQGMRLQWMFNRALLCW, 0.813 ± 0.72.
Turning to TKCGIAYFTQICLVPDVSNS, the amyloid nucleation score was determined as 7.04 ± 0.085.
GCEFWSYTLTLRGKNACNKL: the amyloid nucleation score is -0.234 ± 0.42.
As for SELGVSSVRLERAFILGSWT, the figure is -1.63 ± 1; as for KREKEYFNERLPTDLSLQRC, -1.21 ± 0.66.
As for FWSWSV, the figure is -0.222 ± 0.42; as for FLTAAWTSGHDGREFSPRPF, 2.61 ± 0.16.
As for YDYLDALHLTEASKSGCLVN, the amyloid nucleation score is 0.423 ± 0.69.
As for YASTSNILLSIS, the figure is 0.546 ± 0.2.
Substance YRGKRDKVVGSMMCMWRT had an amyloid nucleation score of 0.518 ± 0.52.
As to TSYVMPEGFAVGFKMSM, the amyloid nucleation score was 0.205 ± 0.66.
As for DYSSSFVNCIYKKPGQGMFG, the figure is 0.133 ± 0.54; as for NVKICDGAIIYMSSMASFEL, 4.79 ± 0.092.
To YSNIRFSMNIYRTLRDRLGA belongs 5.12 ± 0.095; to RAHNKISDDTRAFMGSIFSE, -0.05 ± 1.4.
As for LRALSYWIPARTPIVEGYAK, the figure is -0.333 ± 0.32; as for CFTYSARH, 3.67 ± 0.11; as for EIDNLHWVLVVNYPTSQFKR, -0.02 ± 0.39.
With GPCNTRSCV, the amyloid nucleation score was -0.037 ± 0.43.
With NLSAVRLAYLPCVSHTHCAV, the amyloid nucleation score is 0.875 ± 0.45.
SDCVVVGHGVVRIYMDGVWP gave an amyloid nucleation score of 5.84 ± 0.065.
In turn, HVLADHYTMRGTNFVGYFHL registered an amyloid nucleation score of 4.88 ± 0.069.
For LWGWGFSSEANPIGGRGILN, the amyloid nucleation score is 0.277 ± 0.53.
To FLFFRS belongs 4.62 ± 0.086; to GSCFLCKI, 0.686 ± 0.53.
To DFVMLEV belongs -0.594 ± 0.68.
To SIWVIRPAAGKSEGSISNVQ belongs 0.531 ± 0.5; to YKGWYFFYVCFSKLSIGS, -0.305 ± 0.72.
The substance QKRAMYDLGCSFSLFNLCYQ showed an amyloid nucleation score of 5.28 ± 0.062.
To ACWLAKHKEYRLSGHVQEFD belongs 0.035 ± 0.52; to VASGSCFFRDPKIVIMSFLW, 3.34 ± 0.088; to LLVKNHMRSQEWPLKNSLTN, -1.24 ± 2.4.
To FFRVLFFTFLAWYVELKWQL belongs -0.201 ± 0.78; to YLASREDDINMDASLLSTHA, 1.41 ± 0.66.
To VTNPNYP belongs -0.696 ± 0.65; to MILFSYNG, 1.7 ± 0.58.
For the substance MFRSRGLMAQRYNFGTQLSY, the amyloid nucleation score result is “inactive”.
To NILPSREYHVAKVAGCATGW belongs -0.618 ± 1.4; to RTFTGRDGCVKDVCTPHFEM, 0.632 ± 0.9; to FYKLVSLREIGMIQVIRGLD, -0.395 ± 0.47.
As for SLEWLESCFSDAHIHTAH, the figure is -0.733 ± 1.9; as for CKRLS, -0.216 ± 1.1.
To RRYVICNYCLYSRV belongs 1.12 ± 0.33; to HWRTCCWQEMLLMSALSRQG, -0.252 ± 0.46; to HRSTVAKSTRKLPGICSVFW, 0.845 ± 0.8.
Consider VVLCGDCFSLSLFWDCLWPF, for which the amyloid nucleation score stood at 4.38 ± 0.078.
As for LWVYSMWVQLTAGFNTVDVM, the figure is -0.707 ± 0.95; as for MMGWV, -0.619 ± 0.48.
As for YVLLGFNYKTFYMSVGLDRE, the figure is -0.005 ± 0.52; as for SLSNCTGKNVLVTLS, 0.428 ± 1.2.
As for NSNLVFFRQYIYTVLYTNSF, the figure is 5.817 ± 0.048; as for CVFSVRYALDRWDPTKCEVG, 0.325 ± 0.43; as for ECYGIR, 0.893 ± 0.26.
As for YKTEHNRSIDLLGISSSSFL, the amyloid nucleation score is -0.322 ± 1.
As for CNWATLTMWLLSCIRPTPRS, the figure is -1.1 ± 2.4; as for PHIIFNVVTITYMISALRHV, 3.49 ± 0.09.
To DKEMECIYEYAL belongs 0.523 ± 0.55; to LTMGRKMVPYHLVSAMMGTV, -0.114 ± 0.57; to PFSVWSPPMMDPVHNIFWVR, -0.203 ± 0.49.
Regarding AVNSGRWLSVLRRRMESFLV, the amyloid nucleation score was 0.203 ± 0.42.
As for RTLLSFNRDVSFEGQPPGWL, the figure is 0.352 ± 1.
SYGNVLVGHGV registered an amyloid nucleation score of -0.044 ± 0.61.
LTAIFSRIFNI gave an amyloid nucleation score of -0.997 ± 1.4.
To RTSPSYGIPNWAELLRVE belongs -0.311 ± 0.69; to KGLEPLCLRSFFLWRERFRD, -0.686 ± 0.49.
As for CLRPLEPDVYVTRILRFCDS, the figure is -0.304 ± 0.39.
Substance VLGGCYNFLLCF registered an amyloid nucleation score of 7.713 ± 0.059.
As for INDSRFVAYTCLRVTEKYGL, the figure is 0.855 ± 0.22; as for YDQNWMRTIDRVNH, -0.292 ± 0.5.
IRANLEDVLHIFIPVEGHSR displayed an amyloid nucleation score of -0.655 ± 1.1.
Consider SYWCSHIIIERMLVLVHRIV, for which the amyloid nucleation score turned out to be 1.19 ± 0.59.
To CFTICFVGYCSRVKGWLMQR belongs -0.617 ± 0.71.
For SIFIAGWGCISYKRRVACFR, the amyloid nucleation score result was “inactive”.
As for GPSVPLGVFEKKTAFLKKTL, the figure is -0.328 ± 0.79.
